Where a chain is given by its changes, count along the chain named.
Assays:
CD73-ND-T183A = target: T1, CD73-ND-T183A (human, UniProt P21589 27-317); assay: ELISA, high plateau value (OD 450 nm)
T1 construct: Alanine mutant of CD73-ND
T1 sequence: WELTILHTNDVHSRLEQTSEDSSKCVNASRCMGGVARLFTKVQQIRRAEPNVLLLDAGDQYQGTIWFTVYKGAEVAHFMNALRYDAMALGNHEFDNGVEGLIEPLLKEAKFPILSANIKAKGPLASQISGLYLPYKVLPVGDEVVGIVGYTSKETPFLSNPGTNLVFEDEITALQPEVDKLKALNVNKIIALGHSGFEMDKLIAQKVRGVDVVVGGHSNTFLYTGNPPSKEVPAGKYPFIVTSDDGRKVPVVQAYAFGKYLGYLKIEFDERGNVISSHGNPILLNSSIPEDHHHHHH
Protocol: (§1) The ELISA plates were coated with SA protein diluted to 1.5 μg/mL in coating buffer (50 mM carbonate coating buffer, pH 9.6) and incubated overnight at 4° C. The supernatant was discarded, and the plates were washed three times with PBST. Then, 5% skimmed milk powder prepared with PBS was added for blocking and the plates were incubated for 2 h at 37° C. After washing the plates once with PBST, CD73-biotin protein (prepared by biotinylating CD73-His protein according to the EZ-Link NHS-Biotin Reagent instructions) was diluted to 0.5 μg/mL and added at 100 μL/well for incubation at room temperature for 1 h. The plates were washed three times with PBST, and the prepared murine-derived monoclonal antibodies against human CD73 were serially diluted with 1% BSA buffer prepared with PBST and added to the ELISA plates at 100 μl/well. The plates were incubated at 37° C. for 1 h. After washing the plates three times with PBST, HRP-labeled goat anti-mouse IgG secondary antibody was added and the plates were incubated for 30 min at 37° C. After washing the plates three times with PBST, the residual droplets were patted dry on absorbent paper as much as possible. Then, 100 μl of TMB color developing solution was added to each well, and the plates were incubated in the dark at room temperature for 5 min for color development. Subsequently, 50 μl of 2M H₂SO₄ stop solution was added to each well to terminate the substrate reaction. The OD values were read at 450 nm using a multimode microplate reader to analyze the binding ability of the tested antibodies to the target antigen human CD73-His.
(§2) Referring to the experimental method in Example 3, the affinity of 48A11-HuV33 for various mutant proteins of CD73-ND was determined. The SA protein was diluted to 1 μg/mL for coating the ELISA plates, and the biotinylated CD73 protein (CD73-biotin) was used at a concentration of 0.1 μg/mL.

CD73-ND-his = target: T2, CD73-ND-his (human, UniProt P21589 27-317); assay: ELISA; decline multiple of EC50 against CD73-ND
T2 construct: Biotinylated and captured on streptavidin in the ELISA
T2 sequence: T1 sequence with A183T
Protocol: as §1, §2

CD73-ND-E143A = target: T3, CD73-ND-E143A (human, UniProt P21589 27-317); assay: ELISA; decline multiple of EC50 against CD73-ND
T3 construct: Alanine mutant of CD73-ND
T3 sequence: T1 sequence with E143A, A183T
Protocol: as §1, §2

CD73-ND-V144A = target: T4, CD73-ND-V144A (human, UniProt P21589 27-317); assay: ELISA; decline multiple of EC50 against CD73-ND
T4 construct: Alanine mutant of CD73-ND
T4 sequence: T1 sequence with V144A, A183T
Protocol: as §1, §2

CD73-ND-K180A = target: T5, CD73-ND-K180A (human, UniProt P21589 27-317); assay: ELISA; decline multiple of EC50 against CD73-ND
T5 construct: Alanine mutant of CD73-ND
T5 sequence: T1 sequence with K180A, A183T
Protocol: as §1, §2

CD73-ND-K182A = target: T6, CD73-ND-K182A (human, UniProt P21589 27-317); assay: ELISA; decline multiple of EC50 against CD73-ND
T6 construct: Alanine mutant of CD73-ND
T6 sequence: T1 sequence with K182A, A183T
Protocol: as §1, §2

B1: 48A11-HuV33 (antibody, human IgG4, V domains shown)
VH: QVQLVQSGAEVKKPGASVKVSCKASGYTFTSYWMHWVRQAPGQGLEWIGEINPSIGRTNYNEKFKSRVTLTRDTSTSTAYMELSSLRSEDTAVYYCARRVYGTMDYWGQGTLVTVSS
VL: DIQMTQSPSSLSASVGDRVTITCKASQDINSYLSWFQQKPGKSPKLLIYRANIWVDGVPSRFSGSGSGQDYTFTISSLQPEDIATYYCLQYDELYTFGQGTKVEIK
notes: Humanized
Top (CD73-ND-T183A): 1.98 | Ratio(EC50) (CD73-ND-his): 1 fold | Ratio(EC50) (CD73-ND-E143A): 1.4 fold | Ratio(EC50) (CD73-ND-V144A): 2.5 fold | Ratio(EC50) (CD73-ND-K180A): 2.7 fold | Ratio(EC50) (CD73-ND-K182A): 1 fold
